Data taken from patent publication US20210292393A1 (published 2021).

Experiments:
[1] = target: SARS-CoV-2 full length spike protein, D614G mutant (SARS-CoV-2, UniProt P0DTC2 14-1273)
[2] = target: SARS-CoV-2 full length spike protein, D614G mutant, expressed on CHO cells (SARS-CoV-2, UniProt P0DTC2 14-1273)
[3] = target: SARS-CoV-2 full length spike protein, V367F mutant, expressed on CHO cells (SARS-CoV-2, UniProt P0DTC2 14-1273)
[4] = target: SARS-CoV-2 full length spike protein, D614G mutant (SARS-CoV-2, UniProt P0DTC2 14-1273); remark: listed apart in the source
[5] = target: SARS-CoV-2 full length spike protein, V367F mutant (SARS-CoV-2, UniProt P0DTC2 14-1273)

B1: antibody 291 (antibody, V domains shown)
VH: QVQLVESGGGVVQPGRSLRLSCAASGFTFSSYAMHWVRQAPGKGLEWVAVISYDGSNKYYADSVKGRFTISRDNSKNTLYLQMNSLRAEDTAVYYCARASGGSYFGGMDVWGQGTTVTVSS
VL: QSALTQPASVSGSPGQSITISCTGTSSDVGGYNYVSWYQQHPGKAPKLMIYEVSNRPSGVSNRFSGSKSGNTASLTISGLQAEDEADYYCSSYTSSSTLYVFGTGTKVTVL
median fluorescence intensity, fold over isotype control [1]: 8.03 fold over isotype

B2: antibody 368 (antibody, V domains shown)
V domain 1: QITLKESGPTLVKPTETLTLTCAFSGFSLTKTGEAAGWIRQAPGRALEWVTVIFWDDDKRYSPSLQNRLTVTKDTSKNVVVLTMTNVDPVDTATYFCWAMGGPGKEFFGQGTRVAVSS
V domain 2: QSVLTQPPSVSGAPGQRVTVSCTGTSSSIGPYSDVHWYQHIPGKAPRLLIFGTSNRPSGVPARFSGSKSGSSASLVIAGLQAEDEADYYCQSYDSSLGEIYVFGTGTTVTVL
median fluorescence fold over isotype control [2]: 64.3 fold over isotype
median fluorescence fold over isotype control [3]: 31.6 fold over isotype

B3: antibody 370 (antibody, V domains shown)
VH: QVQLVESGGGVVPPGRSLSLPCAASGFTFSAYAMHWLRQAPGKGLEWVAVISYDGTVKYVADSVRGRFTISRDNSNNTLYLQMTSLRSDDTAVYYCARDLGALAAAPTVYFVHWGQGTLVTVSS
VL: SYVLTQPPSVSVAPGKTATITCAGEDIGRKSVHWYQQKPGQAPVLVIFYYSDRPSGIPDRFSGSVSGNTATLTIGRVEAGDEADYFCQVWDRTTNHVIFGGGTKVTVL
median fluorescence fold over isotype control [2]: 9.47 fold over isotype
median fluorescence fold over isotype control [3]: 35.3 fold over isotype

B4: antibody 381 (antibody, V domains shown)
VH: QVQLVESGGGVVQPGRSLRLSCAASGFTFSSYAMHWVRQAPGKGLEWVAVISYDGSNKYYADSVKGRFTISRDNSKNTLYLQMNSLRAEDTAVYYCARDRQYYDILTGYYLPTSEYYFDYWGQGTLVTVSS
VL: DIQMTQSPSSVSASVGDRVTITCRASQGISSWLAWYQQKPGKAPKLLIYAASSLQSGVPSRFSGSGSGTDFTLTISSLQPEDFATYYCQQANSFPPTFGGGTKVEIK
median fluorescence fold over isotype control [2]: 67.9 fold over isotype
median fluorescence fold over isotype control [3]: 43.6 fold over isotype

B5: antibody 387 (antibody, V domains shown)
VH: QVQLVESGGGVVQPGRSLRLSCAASGFTFSSYGMHWVRQAPGKGLEWVAVISYDGSNKYYADSVKGRFTISRDNSKNTLYLQMNSLRAEDTAVYYCAKDDTKNYGDLDIDYWGQGTLVTVSS
VL: SYELTQPSSVSVSPGQTARITCSGDVLAKKYARWFQQKPGQAPVLVIYKDSERPSGIPERFSGSSSGTTVTLTISGAQVEDEADYYCYSAADNNLGVFGGGTKLTVL
median fluorescence fold over isotype control [2]: 15.9 fold over isotype
median fluorescence fold over isotype control [3]: 6.69 fold over isotype

B6: antibody 391 (antibody, V domains shown)
VH: EVQLVESGGGLVQPGGSLRLSCAASGFTFSSYWMHWVRQAPGKGLVWVSRINSDGSSTSYADSVKGRFTISRDNAKNTLYLQMNSLRAEDTAVYYCALGPLDIVGSYYYYGMDVWGQGTTVTVSS
VL: NFMLTQPHSVSESPGKTVTISCTGSSGSIASNYVQWYQQRPGSAPTTVIYEDNQRPSGVPDRFSGSIDSSSNSASLTISGLKTEDEADYYCQSYDSSNQDVVFGGGTKLTVL
median fluorescence fold over isotype control [2]: 35.6 fold over isotype
median fluorescence fold over isotype control [3]: 18.8 fold over isotype

B7: antibody 394 (antibody, V domains shown)
VH: QVQLVQSGAEVKKPGASVKVSCKASGYTFTGYYMHWVRQAPGQGLEWMGWINPNNGGTNSAQKFQGRVTMTRDTSISTAYMELNRLRSDDTAVYYCARDITTTAGTDYYYGMDVWGQGTTVTVSS
VL: SYELTQPPSVSVSPGQTARITCSGDALPKQYAYWYQQKPGQAPVLVICKDSERPSGIPERFSGSSSGTTVTLTISGVQAEDEADYYCQSADSSGTYIVFGTGTKVTVL
median fluorescence fold over isotype control [2]: 63.4 fold over isotype
median fluorescence fold over isotype control [3]: 37.8 fold over isotype

B8: antibody 397 (antibody, V domains shown)
VH: QVQLVESGGGVVQPGRSLRLSCAASGFTFSSYGMHWVRQAPGKGLESVAVISYDGSNKYYADSVKGRFTISRDNSKNTLYLQMNSLRAEDTAVYYCAKEGQWELQGNAFDIWGQGTMVTVSS
VL: SYELTQPPSVSVSPGQTARITCSGDALPKQYAYWYQQKPGQAPVLVIYKDSERPSGIPERFSGSSSGTTVTLTISGVQAEDEADYYCQSGDSSGTYRVFGGGTKLTVL
median fluorescence fold over isotype control [2]: 7.97 fold over isotype
median fluorescence fold over isotype control [3]: 32.8 fold over isotype

B9: antibody 399 (antibody, V domains shown)
VH: QVQLVQSGAEVKKPGASVKVSCKASGYTFTSYGISWVRQAPGQGLEWMGWISAYNGNTNYAQKLQGRVTMTTDTSTSTAYMELRSLRSDDTAVYYCARDSGYDWAGGHYYYYGMDVWGQGTTVTVSS
VL: QSALTQPASVSGSPGQSITISCTGTSSDVGGYNYVSWYQQHPGKAPKLMIYEVSNRPSGVSNRFSGSKSGNTASLTISGLQAEDEADYYCSSYTSSSTLVVFGGGTKLTVL
median fluorescence fold over isotype control [2]: 70.1 fold over isotype
median fluorescence fold over isotype control [3]: 30.6 fold over isotype

B10: antibody 401 (antibody, V domains shown)
VH: QVQLVQSGAEVKKPGSSVKVSCKASGGTFSSYAISWVRQAPGQGLEWMGRIIPILGIANYAQKFQGRVTIIADKSTSTAYMELSSLRSEDKAVYYCAREGKSDSSSALWYFDLWGRGTLVTVSP
VL: not shown
median fluorescence fold over isotype control [2]: 8.76 fold over isotype
median fluorescence fold over isotype control [3]: 35.5 fold over isotype

B11: antibody 402 (antibody, V domains shown)
VH: QVQLVQSGAEVKKPGASVKVSCKVSGYTLTELSMHWVRQAPGKGLEWMGGFDPEDVETIYAQKFQGRVTMTEDTSTDTAYMELSSLRSEDTAVYYCATGVAVVGTSHSYYYYYGMDVWGQGTTVTVSS
VL: DIQMTQSPSSLSASVGDRVTITCRASQGISNYLAWYQQKPGKVPKLLIYAASTLQSGVPSRFSGSGSGTDFTLTISSLQPEDVATYYCQKYNSAPFTFGPGTKVDIK
median fluorescence fold over isotype control [2]: 67.8 fold over isotype
median fluorescence fold over isotype control [3]: 46.9 fold over isotype

B12: antibody 404 (antibody, V domains shown)
VH: QVQLVESGGGVVQPGRSLRLSCAASGFTFSSYGMHWVRQAPGKGLEWVAVIWYDGSNKYYADSVKGRFTISRDNSKNTLYLQMNSLRAEDTAVYYCARLAVDISFDGSDGMDVWGQGTTVTVSS
VL: SYELTQPPSVSVSPGQTARITCSGDALPKKYAYWYQQKSGQAPVLVIYEDSKRPSGIPERFSGSSSGTMATLTISGAQVEDEADYYCYSTDSSGKGVFGTGTKVTVL
median fluorescence fold over isotype control [2]: 6.02 fold over isotype
median fluorescence fold over isotype control [3]: 27.4 fold over isotype

B13: antibody 410 (antibody, V domains shown)
VH: QVQLVQSGAEVKKPGASVKVSCKASGYTFTSYGISWVRQAPGQGLEWMGWISAYNGNTNYAQKLQGRVTMTTDTSTSTAYMELRSLRSDDTAVYYCARGRITIFGVEYYYGMDVWGQGTTVTVSS
VL: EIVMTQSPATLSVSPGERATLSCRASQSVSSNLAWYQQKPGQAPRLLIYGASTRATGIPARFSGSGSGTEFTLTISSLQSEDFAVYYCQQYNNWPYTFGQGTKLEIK
median fluorescence fold over isotype control [2]: 17.9 fold over isotype
median fluorescence fold over isotype control [3]: 7.64 fold over isotype

B14: antibody 430 (antibody, V domains shown)
VH: QVHLVEAGGGVVQPGKSLRLSCAASGFIFSNFGMHWVRQSPGKGLEWVAVVSYDASVTKYSDSFEGRFTISRDNSKNTLYLQMDSLRPEDSAVYYCAKGQGANLLHDWGQGILVTVSS
VL: DVVLTQSPLSLPVTLGQPASISCRSSESLVYTDGDTYLHWFHQRPGQSPRRLIYKVSNRDSGVPDRFSGSGSGTDFTLRISRVEAEDVGVYYCMQGTHWPFTFGPGTKVDIK
median fluorescence fold over isotype control [4]: 9.17 fold over isotype
median fluorescence fold over isotype control [5]: 38.3 fold over isotype

B15: antibody 433 (antibody, V domains shown)
VH: QVQLVESGGGVVQPGRSLRLSCAASGFTFSSYAMHWVRQAPGKGLEWVAVISYDGSNKYYADSVKGRFTISRDNSKNTLYLQMNSLRAEDTAVYYCAKDYEVVIAIGGPGAFDYWGQGTLVTVSS
VL: SYVLTQPPSVSVAPGKTARITCGGNNIGSKSVHWYQQKPGQAPVLVIYYDSDRPSGIPERFSGSNSGNTATLTISRVEAGDEADYYCQVWDSSSDHVVFGGGTKLTVL
median fluorescence fold over isotype control [4]: 23.1 fold over isotype
median fluorescence fold over isotype control [5]: 12.3 fold over isotype

B16: antibody 438 (antibody, V domains shown)
VH: EVQLVESGGGLVQPGGSLRLSCAASGFTFSSYSMNWVRQAPGKGLEWVSYISSSSSTIYYADSVKGRFTISRDNAKNSLYLQMNSLRAEDTAVYYCARDRGYSDYGPYYYGMDVWGQGTTVTVSS
VL: not shown
median fluorescence fold over isotype control [4]: 71.2 fold over isotype
median fluorescence fold over isotype control [5]: 44 fold over isotype

B17: antibody 440 (antibody, V domains shown)
VH: EVQLLESGGGLVQPGGSLRLSCAASGFTFSSYAMSWVRQAPGKGLEWVSAISGSGVNTYHADSVKGRFTISRDNSRNTLYLQMSSLTAEDTAAYYCAKDFEAASGAYYYYGMDVWGQGTTVTVSS
VL: SYELTQPPSVSVSPGQTARITCSGDALPDQYAYWYQQKPGQAPVVVIYKDRERPSGIPERFSGSNSGTTVTLTISGVQAEDEADYYCQSADSSATYVVFGGGTKLTVL
median fluorescence fold over isotype control [4]: 15.8 fold over isotype
median fluorescence fold over isotype control [5]: 7.17 fold over isotype

B18: antibody 441 (antibody, V domains shown)
VH: EVQLVESGGGVVRPGGSLRLSCAASGFTFGDYGMSWVRQAPGKGLEWVSGINWNGGSTGYADSVKGRFTISRDNAKNSLYLQMNSLRAEDTALYYCASDLVRGVIGFDYWGQGTLVTVSS
VL: SYELTQPPSVSVSPGQTARITCSGDALPKQYAYWYQQKPGQAPVLVIYKDSERPSGIPERFSGSSSGTTVTLTISGVQAEDEADYYCQSADSSGITGVFGGGTKLTVL
median fluorescence fold over isotype control [4]: 14.9 fold over isotype
median fluorescence fold over isotype control [5]: 6.24 fold over isotype

B19: antibody 448 (antibody, V domains shown)
VH: QVQLVQSGAEVKKPGASVKVSCKASGYTFTSYGISWVRQAPGQGLEWMGWISAYNGNTNYAQKLQGRVTMTTDTSTSTAYMELRSLRSDDTAVYYCAIELLEGFYYYYGMDVWGQGTTVTVSS
VL: SYELTQPPSVSVSPGQTARITCSGDALPKQYAYWYQQKPGQAPVLVIYKDSERPSGIPERFSGSSSGTTVTLTISGVQAEDEADYYCQSADSSGTYPYVVFGGGTKLTVL
median fluorescence fold over isotype control [4]: 13.3 fold over isotype
median fluorescence fold over isotype control [5]: 5.79 fold over isotype

B20: antibody 449 (antibody, V domains shown)
VH: not shown
VL: QSALTQPASVSGSPGQSITISCTGTSSDVGGYNYVSWYQQHPGKAPKLMIYEVSNRPSGVSNRFSGSKSGNTASLTISGLQAEDEADYYCSSYTSSSTVVFGGGTKLTVL
median fluorescence fold over isotype control [4]: 68.1 fold over isotype
median fluorescence fold over isotype control [5]: 36.9 fold over isotype
